Reference: US20240368301A1

Legend:
[1] = target: SIRPα V2-his (made by transient transfection of HEK293F cells according to SEQ ID NO:38) (Homo sapiens (Human)) (UniProt P78324); experiment: BLI (Octet RED 96), His-tagged antigen on Ni-NTA sensor, antibody in solution
[2] = target: SIRPα V2-his (made by transient transfection of HEK293F cells according to SEQ ID NO:38) (Homo sapiens (Human)) (UniProt P78324); experiment: competition ELISA; coated SIRPα-V2-his, biotin-CD47 as competitor

Sequence of SIRPα V2-his (made by transient transfection of HEK293F cells according to SEQ ID NO:38) (Homo sapiens (Human)) (P78324 other isoform, or with tags, fused parts or gaps limits assumed): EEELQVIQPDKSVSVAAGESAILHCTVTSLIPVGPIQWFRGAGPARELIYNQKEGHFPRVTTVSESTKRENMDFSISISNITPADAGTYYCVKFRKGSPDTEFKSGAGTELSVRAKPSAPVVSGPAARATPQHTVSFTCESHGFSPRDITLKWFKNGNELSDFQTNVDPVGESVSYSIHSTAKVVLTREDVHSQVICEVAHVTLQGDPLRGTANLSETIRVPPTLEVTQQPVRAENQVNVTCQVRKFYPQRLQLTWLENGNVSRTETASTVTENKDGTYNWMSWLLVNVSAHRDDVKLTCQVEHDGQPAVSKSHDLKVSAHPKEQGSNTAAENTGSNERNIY

Kd [1]: 0.898 nM | koff [1]: 0.000327 s⁻¹ | kon [1]: 364000 M⁻¹ s⁻¹ | IC50 [2]: 9.32 nM
B1: AD4-12 (antibody, V domains shown)
VH: EVQLEESGPGLVAPSQSLSITCTVSGFSLTGYGVNWVRQPPGKGLEWLGIIWGDGSTDYNSALKSRLSISKDNSKSQVFLKMNSLQSDDTARYYCARAGKMDYWGQGTSVTVSS
VL: DIVLTQSPASLAVSLGQGATISCRASESVDSYGNSFMHWYQQKPGQPPKPLIYLASNLESGVPARFSGSGSRTDFTLTIDPVEADDAATYYCQQNNEYPWTFGGGTKLEIK
